We go through 1 substance from article PMC12533913.

What all share (assay): SPR
Experiment [1] deals with Influenza A virus A/WSN/1933 (H1N1) particles, purified (Influenza A virus A/WSN/1933 (H1N1)) (UniProt P03470).
The target in experiment [2] is Influenza A H1N1 (A/Puerto Rico/8/34/Mount Sinai) Matrix protein 1 / M1 Protein (His Tag) (Influenza A virus A/Puerto Rico/8/34/Mount Sinai (H1N1)) (UniProt P03485).
Experiment [3] addresses Influenza NA protein (recombinant, bought) (Influenza A virus (strain not stated)) (UniProt P03470).

Chain of UniProt P03485 (P03485 whole entry): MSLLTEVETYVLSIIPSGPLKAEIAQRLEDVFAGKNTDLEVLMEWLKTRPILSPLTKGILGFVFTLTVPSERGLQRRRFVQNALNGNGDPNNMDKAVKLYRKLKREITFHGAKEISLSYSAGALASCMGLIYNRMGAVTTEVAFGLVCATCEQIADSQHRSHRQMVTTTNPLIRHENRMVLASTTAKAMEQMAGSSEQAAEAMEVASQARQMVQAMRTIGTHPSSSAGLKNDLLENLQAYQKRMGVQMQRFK

In the case of “TfR1 protein (recombinant, bought from Sino Biological) (from UniProt P02786 1-760) (receptor)”, the Kd in experiment [1] was 34.6 nM; in experiment [2], 75.9 nM; in experiment [3], 42.4 nM.
